Assay results as given in paper doi:10.1101/467431 (bioRxiv, 2018).
Where two headings read alike, the source gives them in different places.

T1: Sca2 C-terminal fragment, construct Sca_(868-1515) (Rickettsia conorii, UniProt Q92JF7 868-1515)
T1 sequence: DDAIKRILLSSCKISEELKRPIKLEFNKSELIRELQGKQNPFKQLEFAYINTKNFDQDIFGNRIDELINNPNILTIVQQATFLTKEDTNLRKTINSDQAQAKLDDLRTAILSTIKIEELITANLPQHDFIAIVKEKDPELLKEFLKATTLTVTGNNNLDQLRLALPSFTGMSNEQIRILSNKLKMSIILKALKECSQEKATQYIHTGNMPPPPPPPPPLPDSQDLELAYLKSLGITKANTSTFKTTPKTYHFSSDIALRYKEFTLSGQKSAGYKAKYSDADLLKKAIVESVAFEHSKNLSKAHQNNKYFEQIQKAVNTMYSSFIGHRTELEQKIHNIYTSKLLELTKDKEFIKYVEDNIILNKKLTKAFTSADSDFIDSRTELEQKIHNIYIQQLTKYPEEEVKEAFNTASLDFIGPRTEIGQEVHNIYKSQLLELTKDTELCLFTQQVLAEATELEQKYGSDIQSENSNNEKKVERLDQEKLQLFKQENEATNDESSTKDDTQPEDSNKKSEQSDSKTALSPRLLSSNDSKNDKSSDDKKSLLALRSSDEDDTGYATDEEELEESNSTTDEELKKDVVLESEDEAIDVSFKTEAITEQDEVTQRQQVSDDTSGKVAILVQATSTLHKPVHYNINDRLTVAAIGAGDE

B1: Sca2 N-terminal fragment, construct Sca_(34-670) (domain or fragment)
chain: ASFKDLVSKTPAWEKHNSTQQQNIWKDLTPNEKIKKWQEAALVPSFTQAQNDLGIKYKETDLSSFLDNTRHKARQARAEILLYIERVKQQDFDTKKQAYINQGVVPTDIEAATNLGISYDPSKIDNNVEHDQKVRRAEKDKKAVIELYVSSINRGIKYKHYVDNDIIPEIQEVRTALNMNKDDAQSFVASIRTEIMENAKGQYIADSHIPTEKELKKKFGISRDDNRDGYIKSIRLKVMDKEKPQYIADSHIPTEKELEQKFGADKGEATNYIASIATQMMLDKKSYYIDNNIIPNADELMNEFKIGPVKATSYINQIRAGIEANQFLNNNDTTKPSTGRSQKKSGSKNDHWYMSNQSINNTGTSARIVTGREKKQRYFFDPISTFKTYFNTKASKGNLTQSQHNINRIIQQEENIEEFKNLIKTDPIAALTLQVDSSYKQEAVTTILSDFNDDTIQRVLFSNDKGKLDFNTNIDVKNRPILQELLENSSSEEKTKFAERIQDYATRNISNSQFEEKARLDLIKLAASKDKSSVENFLTLQLELKNRMQPYVVNSVYILTPEIVKEINIELKNKGLIRDSLTKDYMIKLAKEVNNHTLNSVIKVILSDSKILSNETNKILGLAVSNNANNLEQTQSG
B2: Sca2 construct Sca_(869-1060) (domain or fragment)
chain: DAIKRILLSSCKISEELKRPIKLEFNKSELIRELQGKQNPFKQLEFAYINTKNFDQDIFGNRIDELINNPNILTIVQQATFLTKEDTNLRKTINSDQAQAKLDDLRTAILSTIKIEELITANLPQHDFIAIVKEKDPELLKEFLKATTLTVTGNNNLDQLRLALPSFTGMSNEQIRILSNKLKMSIILKALK
B3: MBP fusion of the WH2 domain of WAVE1 (WAVE1 WH2a) (domain or fragment)
chain: AAANNNNNNNNNNLGARSVLLEAIRKGIQLRKV

Tests used:
Experiment in all cases: ITC
[1] = target: T1, Sca2 C-terminal fragment, construct …
[2] = target: T2, monomeric actin (LatB-actin) (UniProt P68135 1-377)
[3] = target: T2, monomeric actin (LatB-actin); remark: listed apart in the source

Binder	Kd [1]	stoichiometry N [2]	Kd [3]	stoichiometry N [3]	Kd [2]
B1	7 µM	2 actin subunits per Sca_(34-670)			
B2			10.8 µM	1 LatB-actin monomer per Sca_(869-1060)	
B3		1.07			0.38 µM
